Source: CN105330739A

Target: huVEGF 165 (human)
Assay: indirect ELISA, huVEGF coated at 0.5 ug/ml, four-parameter fit

huVEGF 165 (human), sequence (chain, as listed by the source, form in doubt): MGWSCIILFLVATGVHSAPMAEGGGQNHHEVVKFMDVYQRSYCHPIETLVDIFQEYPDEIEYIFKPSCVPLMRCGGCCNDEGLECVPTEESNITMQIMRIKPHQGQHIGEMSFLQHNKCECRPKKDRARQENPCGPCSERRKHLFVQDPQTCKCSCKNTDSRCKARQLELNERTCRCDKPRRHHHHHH

- EC50: 0.19 nM
Substance: 商品化贝伐单抗(avastin) (antibody)
